From paper PMC4843017 (2016)
Where two headings read alike, the source gives them in different places.

How the values were obtained:
[1] = biological target: T1, taxol-stabilized microtubules (α-/β-tubulin) (bovine, UniProt P81947 1-451; Q6B856 1-445)
[2] = biological target: T1, taxol-stabilized microtubules …; remark: listed apart in the source

T1 sequence (P81947 whole entry, chain 1 of 2): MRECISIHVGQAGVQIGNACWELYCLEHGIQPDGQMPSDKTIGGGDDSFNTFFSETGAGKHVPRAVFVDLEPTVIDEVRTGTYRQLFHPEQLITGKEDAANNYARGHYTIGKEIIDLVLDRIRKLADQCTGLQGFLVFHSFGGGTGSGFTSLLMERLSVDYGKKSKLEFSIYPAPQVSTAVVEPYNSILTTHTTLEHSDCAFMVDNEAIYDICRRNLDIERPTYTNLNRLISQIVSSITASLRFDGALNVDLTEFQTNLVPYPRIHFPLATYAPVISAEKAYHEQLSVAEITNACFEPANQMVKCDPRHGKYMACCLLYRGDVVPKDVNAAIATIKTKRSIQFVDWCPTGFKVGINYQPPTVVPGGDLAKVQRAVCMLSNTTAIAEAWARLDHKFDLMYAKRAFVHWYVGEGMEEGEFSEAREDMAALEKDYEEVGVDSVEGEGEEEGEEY
T1 sequence (Q6B856 whole entry, chain 2 of 2): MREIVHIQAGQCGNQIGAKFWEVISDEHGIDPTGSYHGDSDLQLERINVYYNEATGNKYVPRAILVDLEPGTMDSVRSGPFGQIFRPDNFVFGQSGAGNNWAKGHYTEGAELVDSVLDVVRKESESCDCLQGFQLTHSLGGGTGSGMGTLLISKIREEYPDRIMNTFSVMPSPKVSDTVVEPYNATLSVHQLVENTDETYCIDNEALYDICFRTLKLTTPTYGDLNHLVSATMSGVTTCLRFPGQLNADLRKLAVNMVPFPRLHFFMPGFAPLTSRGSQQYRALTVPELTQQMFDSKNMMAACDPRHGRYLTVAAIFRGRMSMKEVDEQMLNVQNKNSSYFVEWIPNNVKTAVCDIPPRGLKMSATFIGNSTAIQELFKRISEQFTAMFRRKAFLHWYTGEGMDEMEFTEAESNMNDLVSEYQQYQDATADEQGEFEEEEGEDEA

| Kd [1] [nM] | Kd [2] [nM] | Binder |
| --- | --- | --- |
| 1620 | – | SKAP^159–316 (expressed alone in E. coli) (domain or fragment) VRKGYKPLSKQKSEEELKDKNQLLEAVNKQLHQKLTETQGELKDLTQKVELLEKFRDNCLAILESKGLDPALGSETLASRQESTTDHMDSMLLLETLQEELKLFNETAKKQMEELQALKVKLEMKEERVRFLEQQTLCNNQVNDLTTALKEMEQLLEM |
| – | 1100 | SKAP^103–225 (domain or fragment) TQTRATSKSLLPVRSKEVDVSKQLHSGGPENDVTKITKLRRENGQMKATDTATRRNVRKGYKPLSKQKSEEELKDKNQLLEAVNKQLHQKLTETQGELKDLTQKVELLEKFRDNCLAILESKG |
